Numbering of substitutions follows the chain as printed.

T1: Human Semaphorin3A-Sema Domain, TPP-19068 (human, UniProt Q14563 21-569)
T1 construct: produced inhouse in HEK293-6E; also called human monovalent Sema3A domain
T1 sequence: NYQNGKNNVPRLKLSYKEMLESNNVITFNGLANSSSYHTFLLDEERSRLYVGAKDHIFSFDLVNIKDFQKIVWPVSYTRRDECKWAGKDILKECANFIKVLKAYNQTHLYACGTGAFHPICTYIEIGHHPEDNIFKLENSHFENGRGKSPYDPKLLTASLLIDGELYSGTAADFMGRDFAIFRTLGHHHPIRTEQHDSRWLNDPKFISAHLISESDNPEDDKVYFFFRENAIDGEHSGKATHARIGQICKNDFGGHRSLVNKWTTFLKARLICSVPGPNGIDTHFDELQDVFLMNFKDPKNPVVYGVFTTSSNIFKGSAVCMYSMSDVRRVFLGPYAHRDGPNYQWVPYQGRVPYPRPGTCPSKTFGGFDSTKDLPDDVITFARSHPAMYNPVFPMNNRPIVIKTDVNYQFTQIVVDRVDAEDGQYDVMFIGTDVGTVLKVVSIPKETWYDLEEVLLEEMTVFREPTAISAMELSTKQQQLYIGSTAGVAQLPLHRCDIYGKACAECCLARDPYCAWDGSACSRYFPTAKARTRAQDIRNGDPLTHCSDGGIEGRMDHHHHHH

T2: Mouse Semaphorin3A-Sema Domain, TPP-19069 (mouse, UniProt O08665 21-569)
T2 construct: produced inhouse
T2 sequence: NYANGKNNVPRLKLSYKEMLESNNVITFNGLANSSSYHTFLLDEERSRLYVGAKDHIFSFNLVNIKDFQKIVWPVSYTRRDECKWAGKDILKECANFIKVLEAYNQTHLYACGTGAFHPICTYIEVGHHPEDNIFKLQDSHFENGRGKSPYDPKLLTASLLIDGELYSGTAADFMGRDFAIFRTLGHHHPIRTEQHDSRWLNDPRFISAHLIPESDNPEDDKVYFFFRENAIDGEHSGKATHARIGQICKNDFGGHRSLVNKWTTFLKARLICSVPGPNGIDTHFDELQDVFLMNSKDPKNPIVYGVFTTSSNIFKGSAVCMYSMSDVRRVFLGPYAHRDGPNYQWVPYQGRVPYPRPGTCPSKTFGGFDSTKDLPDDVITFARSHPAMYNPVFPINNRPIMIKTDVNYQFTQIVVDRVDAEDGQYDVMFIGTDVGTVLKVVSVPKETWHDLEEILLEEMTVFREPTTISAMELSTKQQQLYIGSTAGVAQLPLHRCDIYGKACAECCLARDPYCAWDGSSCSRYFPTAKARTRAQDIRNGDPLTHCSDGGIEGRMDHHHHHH

T3: Dog Semaphorin3A-Sema Domain, TPP-19121 (dog, UniProt Q63548 21-569 (rat entry), limits assumed)
T3 construct: produced inhouse
T3 chain: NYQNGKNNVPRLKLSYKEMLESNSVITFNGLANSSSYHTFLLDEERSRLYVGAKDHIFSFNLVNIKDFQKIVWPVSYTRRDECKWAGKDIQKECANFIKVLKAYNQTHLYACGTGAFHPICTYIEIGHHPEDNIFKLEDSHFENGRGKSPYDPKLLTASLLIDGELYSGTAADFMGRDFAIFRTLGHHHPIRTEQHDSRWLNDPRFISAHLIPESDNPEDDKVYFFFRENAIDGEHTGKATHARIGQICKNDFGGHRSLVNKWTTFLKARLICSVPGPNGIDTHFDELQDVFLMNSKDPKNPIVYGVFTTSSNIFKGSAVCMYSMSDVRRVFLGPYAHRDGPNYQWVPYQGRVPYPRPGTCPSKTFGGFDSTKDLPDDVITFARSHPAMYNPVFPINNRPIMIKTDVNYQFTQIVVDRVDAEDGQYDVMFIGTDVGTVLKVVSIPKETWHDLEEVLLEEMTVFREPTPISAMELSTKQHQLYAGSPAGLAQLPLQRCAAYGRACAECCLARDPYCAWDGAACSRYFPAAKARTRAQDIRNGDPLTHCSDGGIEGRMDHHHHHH

T4: Rat Semaphorin3A-Sema Domain, TPP-19120 (rat, UniProt Q63548 21-569)
T4 construct: produced inhouse
T4 sequence: T2 sequence with E102K, I455V

B1: TPP-15374 (antibody, human IgG1, lambda, V domains shown)
VH: EVQLLESGGGLVQPGGSLRLSCAASGFTFSSYEMNWVRQAPGKGLEWVSGISWNSGSIGYADSVKGRFTISRDNSKNTLYLQMNSLRAEDTAVYYCARSGYSSSWFDPDFDYWGQGTLVTVSS
VL: QSVLTQPPSASGTPGQRVTISCTGSSSNIGAGYDVHWYQQLPGTAPKLLIYGNSNRPSGVPDRFSGSKSGTSASLAISGLRSEDEADYYCSSYAGSNPYVVFGGGTKLTVLG
notes: human IgG1; also called IgG1, hit from panning; parental mAb
B2: TPP-17755 (antibody, human IgG1, lambda, V domains shown)
VH: EVQLLESGGGLVQTGGSLRLSCAASGFTFSDYAMSWVRQAPGKGLEWVSWIYYDSGSKYYADSVKGRFTISRDNSKNTLYLQMNSLRAEDTAVYYCAKLNGDFDYWGQGTLVTVSS
VL: QSVLTQPPSASGTPGQRVTISCSGSSSNIGNNDVSWYQQLPGTAPKLLIYADSHRPSGVPDRFSGSKSGTSASLAISGLRSEDEADYYCGAWDSSLSGYVFGGGTKLTVLG
notes: also called Samsung; Samsung Prior Art F11
B3: TPP-11489 (antibody, human IgG1, lambda)
heavy: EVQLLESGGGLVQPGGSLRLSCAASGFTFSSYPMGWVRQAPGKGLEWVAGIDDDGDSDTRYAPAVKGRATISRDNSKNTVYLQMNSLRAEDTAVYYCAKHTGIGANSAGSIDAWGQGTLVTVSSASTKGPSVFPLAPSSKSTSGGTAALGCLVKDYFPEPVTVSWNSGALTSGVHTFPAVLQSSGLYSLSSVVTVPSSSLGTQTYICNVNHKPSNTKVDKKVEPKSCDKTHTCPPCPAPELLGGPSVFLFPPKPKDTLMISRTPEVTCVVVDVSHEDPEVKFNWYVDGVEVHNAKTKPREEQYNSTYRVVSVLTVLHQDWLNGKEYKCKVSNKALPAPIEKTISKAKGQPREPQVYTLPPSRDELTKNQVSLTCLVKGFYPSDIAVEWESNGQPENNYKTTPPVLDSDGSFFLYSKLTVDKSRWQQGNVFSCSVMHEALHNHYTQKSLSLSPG
light: SYELTQPPSVSVSPGQTARITCSGGGSYTGSYYYGWYQQKPGQAPVTVIYYNNKRPSDIPERFSGSLSGTTNTLTISGVQAEDEADYYCGSADNSGDAFGTGTKVTVLGQPKAAPSVTLFPPSSEELQANKATLVCLISDFYPGAVTVAWKADSSPVKAGVETTTPSKQSNNKYAASSYLSLTPEQWKSHRSYSCQVTHEGSTVEKTVAPTECS
notes: human IgG1; also called Chiome; Chiome Prior Art (hIgG1)
B4: TPP-30788 (antibody, human IgG1, kappa, V domains shown)
VH: EVQLVESGGGLVQPGGSLRLSCAASGFTFSSYYMSWVRQAPGKGLEWVSTIIKSGGYAYYPDSVKDRFTISRDNSKNTLYLQMSSLRAEDTAVYYCVRGGQGAMDYWGQGTTVTVSS
VL: EIVLTQSPATLSLSPGERATLSCRASQSIGDYLHWYQQKPGQAPRLLIKYASQSISGIPARFSGSGSGTDFTLTITSLEPEDFAVYYCQQGYSFPYTFGGGTKLEIKR
notes: prior art, WO 2020/225400; also called BI clone I; Böhringer (BI) Clone I
B5: TPP-30791 (antibody, human IgG1, kappa, V domains shown)
VH: B4 VH with V12L, P14L, Y80N, S84N, R98K
VL: B4 VL with T76S
notes: prior art, WO 2020/225400; also called BI clone IV; Böhringer (BI) Clone IV
B6: TPP-30790 (antibody, human IgG1, kappa, V domains shown)
VH: B4 VH with P14L, S84N, R98K
VL: B4 VL with K49Y, T76S
notes: prior art, WO 2020/225400; also called BI clone III; Böhringer (BI) Clone III
B7: TPP-30789 (antibody, human IgG1, kappa, V domains shown)
VH: B4 VH with T28P
VL: B4 VL
notes: prior art, WO 2020/225400; also called BI clone II; Böhringer (BI) Clone II
B8: TPP-23298 (antibody, human IgG4 S228P, lambda, V domains shown)
VH: EVQLLESGGGLVQPGGSLRLSCAASGFTFYSYAMSWVRQAPGKGLEWVSAIGTGGDTYYADSVKGRFTISRDNSKNTLYLQMNSLRAEDTAVYYCARRDDYTSRDAFDYWGQGTLVTVSS
VL: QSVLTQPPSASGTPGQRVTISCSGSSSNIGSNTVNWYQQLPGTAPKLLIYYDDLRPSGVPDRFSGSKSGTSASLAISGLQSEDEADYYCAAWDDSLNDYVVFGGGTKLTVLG
B9: TPP-15370 (antibody, human IgG1, lambda, V domains shown)
VH: B8 VH with Y30S, A33G, S35H, K64M, Y109V
VL: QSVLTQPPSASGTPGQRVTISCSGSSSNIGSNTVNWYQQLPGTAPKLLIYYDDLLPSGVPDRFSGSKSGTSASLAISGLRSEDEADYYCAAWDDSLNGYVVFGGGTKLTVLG
notes: as for B1

In the first assay the target is T1, Human Semaphorin3A-Sema Domain, …. Put plainly: SPR, captured antibody, Sema3A domain analyte. The procedure:
(§1) To assess the binding activity of anti-Sema3A antibodies binding assays were conducted using surface plasmon resonance (SPR). Binding assays were performed on a Biacore T200 instrument (Cytiva) at 25° C. using assay buffer HBS P+, 300 mM NaCl, 0.75 mM CaCl₂, 2.5 mM MgCl₂, 1 mg/ml BSA, 0.05% NaN₃. Antibodies were captured via anti-human Fc IgGs (“Human antibody capture kit”, Order No. BR100839, Cytiva) covalently amine coupled to a Series S CM5 sensor chip (Cytiva). The amine coupling was carried out according to the manufacturer's instructions using 1-ethyl-3-(3-dimethylaminopropyl) carbodiimide hydrochloride (EDC), N-hydroxysuccinimide (NHS) and ethanolamine HCl, pH 8.5 (“Amine Coupling Kit” BR-1000-50, Cytiva.). Human, mouse, cynomolgus, rat, dog and pig monovalent Sema3A domain were used as analytes in a concentration series from 0.024-3.125 nM in multi cycle kinetics mode. The sensor surface was regenerated with glycine pH 2.0 after each antigen injection. Obtained sensorgrams were double referenced (subtraction of reference flow cell signal and buffer injection) and were fitted to a 1:1 Langmuir binding model using the Biacore T200 Evaluation software obtaining the experimental fitted RMax value. To calculate the binding activity first the theoretical RMax needs to be calculated according to equation 1: […]
(§2) Binding activity was determined by dividing the experimental determined RMax by the theoretical calculated RMax according to equation 2: […]
In general terms: In SPR one partner is held on a chip, and binding of the other changes the refractive index at the surface.
With B1, the “Binding Activity [%]” value is 10%.

Consider B2, for which the “Binding Activity [%]” value worked out at 55%.

In the case of B3, the “Binding Activity [%]” value was 38%.

Take B4: the “Binding Activity [%]” value was 107%.

B5: the “Binding Activity [%]” value is 107%.

As for B6, the “Binding Activity [%]” value worked out at 93%.

Take B7: the “Binding Activity [%]” value amounted to 106%.

B8: the “Binding Activity [%]” value is 107%.

With B9, the “Binding Activity [%]” value was determined as 112%.

The target of another assay is T2, Mouse Semaphorin3A-Sema Domain, …. As to the kind of experiment: SPR, captured antibody, Sema3A domain analyte. The procedure: as §1, §2
In the case of B1, the “Binding Activity [%]” value was found to be 106%.

Take B2: the “Binding Activity [%]” value is 57%.

B3: the “Binding Activity [%]” value was 118%.

With B4, the “Binding Activity [%]” value came out at 108%.

B5: the “Binding Activity [%]” value amounted to 107%.

B6: the “Binding Activity [%]” value was determined as 93%.

With B7, the “Binding Activity [%]” value was 103%.

Regarding B8, the “Binding Activity [%]” value turned out to be 108%.

In the case of B9, the “Binding Activity [%]” value is 11%.

A further assay has as its target T3, Dog Semaphorin3A-Sema Domain, TPP-19121. Put plainly: SPR, captured antibody, Sema3A domain analyte. As for the experimental part:
as §1, §2
B1: the “Binding Activity [%]” value was 98%.

B2: the “Binding Activity [%]” value was found to be 55%.

Take B3: the “Binding Activity [%]” value is 22%.

Take B4: the “Binding Activity [%]” value came to 106%.

Regarding B5, the “Binding Activity [%]” value was determined as 106%.

As to B6, the “Binding Activity [%]” value was 92%.

As to B7, the “Binding Activity [%]” value came out at 102%.

Take B8: the “Binding Activity [%]” value is 107%.

For B9, the “Binding Activity [%]” value amounted to 114%.

In a further assay the target is T4, Rat Semaphorin3A-Sema Domain, TPP-19120. As to the kind of experiment: SPR, captured antibody, Sema3A domain analyte. As for the experimental part: as §1, §2
Consider B1, for which the “Binding Activity [%]” value was 94%.

Consider B2, for which the “Binding Activity [%]” value amounted to 56%.

As to B3, the “Binding Activity [%]” value turned out to be 31%.

As for B4, the “Binding Activity [%]” value was determined as 109%.

For the molecule B5, the “Binding Activity [%]” value amounted to 109%.

For the molecule B6, the “Binding Activity [%]” value was found to be 94%.

As to B7, the “Binding Activity [%]” value worked out at 104%.

B8: the “Binding Activity [%]” value is 108%.

B9: the “Binding Activity [%]” value stood at 113%.

(Values after patent publication US20240254222A1 (Bayer, published 2024).)
